Data taken from patent US6849258.

Columns and labels:
[1] = molecular target: human CD2 (CD2 antigen on human PBMC, on COS cells transfected with the entire CD2 molecule, and on CD2-expressing Jurkat cells) (human) (UniProt P06729); experiment: two-colour flow cytometry of human PBMC, biotinylated LO-CD2a (FL1) and Leu-5b-PE (FL2); upper left quadrant
[2] = molecular target: human CD2 (CD2 antigen on human PBMC, on COS cells transfected with the entire CD2 molecule, and on CD2-expressing Jurkat cells) (human) (UniProt P06729); experiment: two-colour flow cytometry of human PBMC, biotinylated LO-CD2a (FL1) and Leu-5b-PE (FL2); upper right quadrant

Chain of UniProt P06729 (P06729 25-351): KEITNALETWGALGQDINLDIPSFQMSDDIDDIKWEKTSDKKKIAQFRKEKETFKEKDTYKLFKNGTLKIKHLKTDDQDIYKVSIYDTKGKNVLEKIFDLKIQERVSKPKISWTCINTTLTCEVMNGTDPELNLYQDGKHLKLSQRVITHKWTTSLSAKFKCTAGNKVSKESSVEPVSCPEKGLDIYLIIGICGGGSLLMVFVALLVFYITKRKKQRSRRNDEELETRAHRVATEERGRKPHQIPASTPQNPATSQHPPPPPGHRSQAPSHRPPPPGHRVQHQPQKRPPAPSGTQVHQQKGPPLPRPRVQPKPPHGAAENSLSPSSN

% gated (quadrant 1UL) [1]: 23.2%
Y mean (quadrant 1UL) [1]: 285
Y mean (quadrant 2UR) [2]: 631
Substance: Leu-5b, mouse anti-human CD2 monoclonal antibody (Becton Dickinson)
